By Kd is commonly meant the constant that tells how readily two partners part at equilibrium. In general, koff refers to the first-order rate constant of dissociation. The term kon denotes a measure of how fast the partners come together.

In experiment [1] the target is T1, recombinant human IL-17 (human, UniProt Q16552 24-155). Put plainly: cell-based or functional assay.
In experiment [2] the target is T1, recombinant human IL-17. Put plainly: SPR Biacore, Ig captured by anti-Fc, antigen injected. Background: Surface plasmon resonance follows binding to a sensor surface in real time, without labels.
Procedure: The kinetics of FIT-Ig binding to rhIL-17 and rhIL-20 was determined by surface plasmon resonance (Table 5) with a Biacore X100 instrument (Biacore AB, Uppsala, Sweden) using HBS-EP (10 mM HEPES, pH 7.4, 150 mM NaCl, 3 mM EDTA, and 0.005% surfactant P20) at 25° C. Briefly, goat anti-human IgG Fcγ fragment specific polyclonal antibody (Pierce Biotechnology Inc, Rockford, Ill.) was directly immobilized across a CM5 research grade biosensor chip using a standard amine coupling kit according to manufacturer's instructions. Purified FIT-Ig samples were diluted in HEPES-buffered saline for capture across goat anti-human IgG Fc specific reaction surfaces and injected over reaction matrices at a flow rate of 5 μl/min. The association and dissociation rate constants, kon (M-1s-1) and koff (s-1) were determined under a continuous flow rate of 30 μL/min. […] The equilibrium dissociation constant (M) of the reaction between FIT-Ig and the target proteins was then calculated from the kinetic rate constants by the following formula: KD=koff/kon. Aliquots of antigen samples were also simultaneously injected over a blank reference and reaction CM surface to record and subtract any nonspecific binding background to eliminate the majority of the refractive index change and injection noise. Surfaces were regenerated with two subsequent 25 ml injections of 10 mM Glycine (pH 1.5) at a flow rate of 10 μL/min.
In experiment [3] the target is T2, hFactor IX (Enzyme Research Laboratory) (human, UniProt P00740 47-461).
T2 construct: also called FIX
Nature of the experiment: SPR Biacore X100, Ig captured by anti-Fc, 500 nM antigen.
Procedure: (§1) Affinity measurement by surface plasmon resonance: The kinetics of FIT-Ig binding to hFactor IX and hFactor X (Enzyme Research Laboratory) was determined by surface plasmon resonance with a Biacore X100 instrument (Biacore AB, Uppsala, Sweden) using HBS-EP (10 mM HEPES, pH 7.4, 150 mM NaCl, 3 mM EDTA, and 0.005% surfactant P20) at 25° C. Briefly, goat anti-human IgG Fc fragment specific polyclonal antibody (Pierce Biotechnology Inc, Rockford, Ill.) was directly immobilized across a CM5 research grade biosensor chip using a standard amine coupling kit according to manufacturer's instructions. Purified FIT-Ig samples were diluted in HEPES-buffered saline for capture across goat anti-human IgG Fc specific reaction surfaces and injected over reaction matrices at a flow rate of 5 μl/min. The association and dissociation rate constants, kon (M-1s-1) and koff (s-1) were determined under a continuous flow rate of 30 μL/min. Rate constants were derived by making kinetic binding measurements at 500 nM antigen concentrations. The equilibrium dissociation constant (M) of the reaction between FIT-Ig and the target proteins was then calculated from the kinetic rate constants by the following formula: KD=koff/kon. Aliquots of antigen samples were also simultaneously injected over a blank reference and reaction CM surface to record and subtract any nonspecific binding background to eliminate the majority of the refractive index change and injection noise. Surfaces were regenerated with two subsequent 25 ml injections of 10 mM Glycine (pH 1.5) at a flow rate of 10 μL/min. The anti-Fc antibody immobilized surfaces were completely regenerated and retained their full capture capacity over twelve cycles.

The target in experiment [4] is T3, hFactor X (Enzyme Research Laboratory) (human, UniProt P00742 41-488, limits assumed).
T3 construct: also called FX
The description is as above.
Procedure: as §1

T1 sequence (Q16552 24-155 limits assumed): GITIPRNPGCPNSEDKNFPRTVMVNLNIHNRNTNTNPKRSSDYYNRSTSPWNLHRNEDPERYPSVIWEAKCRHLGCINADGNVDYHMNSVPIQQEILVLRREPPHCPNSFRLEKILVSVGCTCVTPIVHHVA

B1: anti-IL-17 mAb (clone LY) (antibody, V domains shown)
VH: QVQLVQSGAEVKKPGSSVKVSCKASGYSFTDYHIHWVRQAPGQGLEWMGVINPMYGTTDYNQRFKGRVTITADESTSTAYMELSSLRSEDTAVYYCARYDYFTGTGVYWGQGTLVTVSS
VL: DIVMTQTPLSLSVTPGQPASISCRSSRSLVHSRGNTYLHWYLQKPGQSPQLLIYKVSNRFIGVPDRFSGSGSGTDFTLKISRVEAEDVGVYYCSQSTHLPFTFGQGTKLEIK
notes: parental mAb
With B1, the “Neutralization Potency IC50 (GROα production by Hs27 cells)” value with recombinant human IL-17 [1] turned out to be 0.101 nM. In addition, in the experiment with recombinant human IL-17 [2], the Kd amounted to 0.0218 nM, the koff was 1.8e-05 s⁻¹ and the kon was 824000 M⁻¹ s⁻¹.

B2: FIT014a Factor IX (Factor IX Ab)/Factor X (Factor X Ab) (bispecific antibody, human IgG4 S228P, kappa)
chain 1: DIQMTQSPSSLSASVGDRVTITCKASRNIERQLAWYQQKPGQAPELLIYQASRKESGVPDRFSGSRYGTDFTLTISSLQPEDIATYYCQQYSDPPLTFGGGTKVEIKRTVAAPSVFIFPPSDEQLKSGTASVVCLLNNFYPREAKVQWKVDNALQSGNSQESVTEQDSKDSTYSLSSTLTLSKADYEKHKVYACEVTHQGLSSPVTKSFNRGECQVQLVQSGSELKKPGASVKVSCKASGYTFTDNNMDWVRQAPGQGLEWMGDINTRSGGSIYNEEFQDRVIMTVDKSTDTAYMELSSLRSEDTATYHCARRKSYGYYLDEWGEGTLVTVSSASTKGPSVFPLAPCSRSTSESTAALGCLVKDYFPEPVTVSWNSGALTSGVHTFPAVLQSSGLYSLSSVVTVPSSSLGTQTYTCNVDHKPSNTKVDKRVESKYGPPCPPCPAPEFLGGPSVFLFPPKPKDTLMISRTPEVTCVVVDVSQEDPEVQFNWYVDGVEVHNAKTKPREEQYNSTYRVVSVLTVLHQDWLNGKEYKCKVSNKGLPSSIEKTISKAKGQPREPQVYTLPPSQEEMTKNQVSLTCLVKGFYPSDIAVEWESNGQPENNYKTTPPVLDSDGSFFLYSKLTVDKSRWQEGNVFSCSVMHEALHNHYTQESLSLSP
chain 2: QVQLVESGGGLVQPGGSLRLSCAASGFTFSYYDIQWVRQAPGKGLEWVSSISPSGQSTYYRREVKGRFTISRDNSKNTLYLQMNSLRAEDTAVYYCARRTGREYGGGWYFDYWGQGTLVTVSSASTKGPSVFPLAPSSKSTSGGTAALGCLVKDYFPEPVTVSWNSGALTSGVHTFPAVLQSSGLYSLSSVVTVPSSSLGTQTYICNVNHKPSNTKVDKKVEPKSC
chain 3: DIQMTQSPSSLSASVGDRVTITCKASRNIERQLAWYQQKPGQAPELLIYQASRKESGVPDRFSGSRYGTDFTLTISSLQPEDIATYYCQQYSDPPLTFGGGTKVEIKRTVAAPSVFIFPPSDEQLKSGTASVVCLLNNFYPREAKVQWKVDNALQSGNSQESVTEQDSKDSTYSLSSTLTLSKADYEKHKVYACEVTHQGLSSPVTKSFNRGEC
notes: leader left out; also called FIT-Ig 014a
In experiment [3], B2 yielded a Kd of 9.91 nM, a dissociation rate constant (koff) of 0.000332 s⁻¹ and a kon of 33500 M⁻¹ s⁻¹. Further, in experiment [4], the affinity, expressed as Kd, was 10 nM; the koff was 0.000776 s⁻¹; the association rate constant (kon) came to 77500 M⁻¹ s⁻¹.

B3: Factor X mAb (antibody, V domains shown)
VH: QVQLVQSGSELKKPGASVKVSCKASGYTFTDNNMDWVRQAPGQGLEWMGDINTRSGGSIYNEEFQDRVIMTVDKSTDTAYMELSSLRSEDTATYHCARRKSYGYYLDEWGEGTLVTVSS
VL: DIQMTQSPSSLSASVGDRVTITCKASRNIERQLAWYQQKPGQAPELLIYQASRKESGVPDRFSGSRYGTDFTLTISSLQPEDIATYYCQQYSDPPLTFGGGTKVEIK
notes: parental mAb; also called mAb FX; Factor X Ab
In experiment [4], B3 showed a Kd of 45.1 nM, an off-rate (koff) of 0.00142 s⁻¹ and a kon of 31500 M⁻¹ s⁻¹.

For the origin of these results see patent publication US20230220080A1 (EPIMAB BIOTHERAPEUTICS, published 2023).
